T1: VBP-C/EBP chimera (VBP basic region, C/EBP leucine zipper) (Gallus gallus / Rattus norvegicus?)
T1 chain: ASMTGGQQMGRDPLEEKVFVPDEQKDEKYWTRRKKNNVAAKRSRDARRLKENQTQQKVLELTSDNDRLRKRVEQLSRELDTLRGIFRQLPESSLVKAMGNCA


Assays:
[1] = target: T1, VBP-C/EBP chimera (VBP basic region, …); experiment: competition; calculated from displacement by 0-3heptad-F dominant negatives, Trp fluorescence, 25 C, 150 mM KCl, 12.5 mM phosphate pH 7.4; settings: chain copies: 2 (stated)
Experimental: FIG. 14A: 3heptad-F inhibits C/EBP DNA binding. […] Protein was diluted four-fold in the successive lanes. […] FIG. 14B: Displacement of VBP-C/EBP from DNA by five dominant negatives (DNs) assayed by fluorescence. Fluorescence of a single tryptophan located in the basic region of VBP-C/EBP increased upon DNA binding (minutes 5–10). The addition of 1.1 molar equivalents of the F zipper or of the four different acidic extension caused a decrease in fluorescence. After 20 minutes, 10 more molar equivalents were added, causing an additional displacement of VBP-C/EBP from the DNA. 4heptad-F, shown in bold, causes the most dramatic displacement of VBP:C/EBP. […] This is not observed for the other four mixtures which return to the VBP-C/EBP-only baseline.

[2] = target: C/EBPalpha (UniProt P05554 P05554:1-358); experiment: cell_activity; CAT transactivation in HepG2; completely inhibited by 3heptad-F; settings: tags: N-terminal FLAG; chain copies: 2 (inferred)
Source text: Human hepatoma cells (HepG2) were transiently transfected with three plasmids, a chloramphenicol acetyl transferase (CAT) expression plasmid driven by a single C/EBP cis element, the C/EBP transactivator, and different DNs. The histogram presents the extent of transactivation observed in the presence of different combinations of transactivator and dominant-negatives. In the absence of any DN, expressed C/EBP transactivated a single C/EBP site approximately 10 fold. […] This protein was able to transactivate a C/EBP containing promoter and was not inhibited by 3heptad-F.
In these experiments, 10 μg of reporter plasmid, 0.3 μg of transactivator, and 5 μg of DN were added to each transient transfection. […] Sheared salmon sperm DNA was added to bring the DNA concentrations to 20 μg. Calcium phosphate transfections were performed following the manufacturer's instructions (Gibco).

Row | Binder | Kd [1] | activity [2]
1 | 28 bp C/EBP site probe (dsDNA) DNA 1: GTCAGTCAGATTGCGCAATATCGGTCAG DNA 2: CTGACCGATATTGCGCAATCTGACTGAC | 0.1 nM | 
2 | C/EBP consensus site in CAT reporter promoter (dsDNA) DNA 1: ATTGCGCAAT DNA 2: ATTGCGCAAT |  | ~10 fold
